The text below walks through data of article PMC7473174 (Cell reports, 2020).

The target of this test is GST-(TEV)-ZGRF1-(His)6 (human, UniProt Q86YA3 1-2104). The test is described as follows: pull-down.
GST-(TEV)-ZGRF1-(His)6, sequence (Q86YA3 whole entry): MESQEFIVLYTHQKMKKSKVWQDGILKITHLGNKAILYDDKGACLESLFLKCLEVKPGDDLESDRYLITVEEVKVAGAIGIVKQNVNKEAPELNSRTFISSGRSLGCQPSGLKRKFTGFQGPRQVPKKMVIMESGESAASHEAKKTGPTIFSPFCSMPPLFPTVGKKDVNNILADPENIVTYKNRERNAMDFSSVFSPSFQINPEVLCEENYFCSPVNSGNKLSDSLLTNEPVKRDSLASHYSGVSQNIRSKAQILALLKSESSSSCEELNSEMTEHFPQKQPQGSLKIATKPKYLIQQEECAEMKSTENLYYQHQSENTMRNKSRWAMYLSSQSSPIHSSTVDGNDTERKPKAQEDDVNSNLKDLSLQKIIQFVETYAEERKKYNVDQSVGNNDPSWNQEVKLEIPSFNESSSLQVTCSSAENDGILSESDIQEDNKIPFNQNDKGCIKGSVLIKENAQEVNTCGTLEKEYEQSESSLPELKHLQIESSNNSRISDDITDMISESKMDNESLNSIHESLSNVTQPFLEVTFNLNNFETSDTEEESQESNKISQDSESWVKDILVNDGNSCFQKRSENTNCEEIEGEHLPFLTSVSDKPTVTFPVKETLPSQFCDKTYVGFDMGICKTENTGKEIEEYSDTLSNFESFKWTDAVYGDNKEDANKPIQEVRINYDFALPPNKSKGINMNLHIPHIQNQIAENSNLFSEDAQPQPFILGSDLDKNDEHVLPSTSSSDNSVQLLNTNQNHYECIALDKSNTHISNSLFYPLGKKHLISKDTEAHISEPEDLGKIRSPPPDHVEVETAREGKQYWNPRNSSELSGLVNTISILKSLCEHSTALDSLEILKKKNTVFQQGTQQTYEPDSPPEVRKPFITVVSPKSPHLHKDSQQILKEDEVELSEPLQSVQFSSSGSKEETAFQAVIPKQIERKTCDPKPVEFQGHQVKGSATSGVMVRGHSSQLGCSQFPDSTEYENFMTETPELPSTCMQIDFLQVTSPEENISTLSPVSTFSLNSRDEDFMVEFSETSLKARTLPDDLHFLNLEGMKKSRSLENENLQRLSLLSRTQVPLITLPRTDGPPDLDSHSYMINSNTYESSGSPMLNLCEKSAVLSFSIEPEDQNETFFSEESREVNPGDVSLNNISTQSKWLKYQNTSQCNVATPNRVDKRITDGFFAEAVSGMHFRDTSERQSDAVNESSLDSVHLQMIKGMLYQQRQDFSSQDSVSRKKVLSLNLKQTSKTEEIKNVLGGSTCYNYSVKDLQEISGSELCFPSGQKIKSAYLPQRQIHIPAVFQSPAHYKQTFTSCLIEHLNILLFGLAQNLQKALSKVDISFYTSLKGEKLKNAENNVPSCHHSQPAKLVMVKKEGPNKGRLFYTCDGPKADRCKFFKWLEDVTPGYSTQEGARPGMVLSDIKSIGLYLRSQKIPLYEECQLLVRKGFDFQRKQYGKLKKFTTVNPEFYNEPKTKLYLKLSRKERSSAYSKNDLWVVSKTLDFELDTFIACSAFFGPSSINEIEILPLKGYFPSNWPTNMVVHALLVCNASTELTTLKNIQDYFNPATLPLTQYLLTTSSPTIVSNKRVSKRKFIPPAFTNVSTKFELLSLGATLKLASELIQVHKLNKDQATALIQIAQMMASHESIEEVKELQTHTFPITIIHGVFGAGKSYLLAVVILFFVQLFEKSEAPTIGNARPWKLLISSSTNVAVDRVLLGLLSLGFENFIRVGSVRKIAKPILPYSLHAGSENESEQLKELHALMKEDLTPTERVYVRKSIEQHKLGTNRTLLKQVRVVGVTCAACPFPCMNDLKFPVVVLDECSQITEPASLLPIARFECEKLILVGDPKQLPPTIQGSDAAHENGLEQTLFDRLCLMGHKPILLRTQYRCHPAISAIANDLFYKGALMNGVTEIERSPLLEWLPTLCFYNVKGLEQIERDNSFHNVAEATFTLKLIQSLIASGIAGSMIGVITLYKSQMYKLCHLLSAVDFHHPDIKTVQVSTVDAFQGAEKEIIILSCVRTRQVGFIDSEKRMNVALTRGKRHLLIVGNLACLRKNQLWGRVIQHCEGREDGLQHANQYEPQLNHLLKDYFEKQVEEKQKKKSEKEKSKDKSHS

B1: human RAD51 (natural protein, UniProt Q06609 1-339, looked up)
chain: MAMQMQLEANADTSVEEESFGPQPISRLEQCGINANDVKKLEEAGFHTVEAVAYAPKKELINIKGISEAKADKILAEAAKLVPMGFTTATEFHQRRSEIIQITTGSKELDKLLQGGIETGSITEMFGEFRTGKTQICHTLAVTCQLPIDRGGGEGKAMYIDTEGTFRPERLLAVAERYGLSGSDVLDNVAYARAFNTDHQTQLLYQASAMMVESRYALLIVDSATALYRTDYSGRGELSARQMHLARFLRMLLRLADEFGVAVVITNQVVAQVDGAAMFAADPKKPIGGNIIAHASTTRLYLRKGRGETRICKIYDSPCLPEAEAMFAINADGVGDAKD
Take B1: the binding result is “binds”.
